# Measurements published in PMC12465037, “Defective targeting of PNPLA1 to lipid droplets causes ichthyosis in ABHD5-syndromic epidermal differentiation disorder” (Journal of Lipid Research, 2025).
# Positions count from the first letter of the chain named. Numbers in names are those of the source.
# T1: 3xFLAG-tagged full-length human PNPLA1, partially purified (pcDNA4/HisMaxC-mut-3xFLAG-hsPNPLA1) (human, UniProt Q8N8W4-1 1-532)
# T1 construct: human PNPLA1, full-length open reading frame of NM_001145717.1; also called 3xFLAG-PNPLA1; source: Expi293F, transfected, partially purified (IMAC, HisTrap HP)
# T1 sequence (looked up): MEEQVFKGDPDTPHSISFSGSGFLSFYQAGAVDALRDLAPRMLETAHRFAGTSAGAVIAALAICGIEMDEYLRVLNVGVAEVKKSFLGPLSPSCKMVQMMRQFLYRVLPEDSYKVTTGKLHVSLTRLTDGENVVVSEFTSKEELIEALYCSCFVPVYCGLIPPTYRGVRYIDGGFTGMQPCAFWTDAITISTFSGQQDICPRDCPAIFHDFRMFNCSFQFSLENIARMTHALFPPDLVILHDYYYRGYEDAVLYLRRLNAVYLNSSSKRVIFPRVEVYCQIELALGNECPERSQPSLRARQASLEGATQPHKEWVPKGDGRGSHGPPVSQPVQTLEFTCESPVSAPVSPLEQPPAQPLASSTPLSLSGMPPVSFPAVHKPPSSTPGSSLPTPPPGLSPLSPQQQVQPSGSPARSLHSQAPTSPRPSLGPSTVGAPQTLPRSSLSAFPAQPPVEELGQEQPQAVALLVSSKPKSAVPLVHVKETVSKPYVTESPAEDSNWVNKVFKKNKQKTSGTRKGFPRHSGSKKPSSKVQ
# B1: Xpress-tagged human ABHD5 p.E260K (natural protein, UniProt Q8WTS1 1-349, looked up)
# chain: MAAEEEEVDSADTGERSGWLTGWLPTWCPTSISHLKEAEEKMLKCVPCTYKKEPVRISNGNKIWTLKFSHNISNKTPLVLLHGFGGGLGLWALNFGDLCTNRPVYAFDLLGFGRSSRPRFDSDAEEVENQFVESIEEWRCALGLDKMILLGHNLGGFLAAAYSLKYPSRVNHLILVEPWGFPERPDLADQDRPIPVWIRALGAALTPFNPLAGLRIAGPFGLSLVQRLRPDFKRKYSSMFEDDTVTEYIYHCNVQTPSGKTAFKNMTIPYGWAKRPMLQRIGKMHPDIPVSVIFGARSCIDGNSGTSIQSLRPHSYVKTIAILGAGHYVYADQPEEFNQKVKEICDTVD
# notes: human ABHD5, full-length open reading frame of NM_016006.6 with the patient mutation p.E260K; Disease-associated (ABHD5-sEDD) missense variant made by site-directed mutagenesis; source: HEK293T, transfected (pcDNA4/HisMaxC), in lysate
# B2: Xpress-tagged human ABHD5 p.H82R (natural protein, UniProt Q8WTS1 1-349, looked up)
# chain: B1 chain with H82R, K260E
# notes: human ABHD5, full-length open reading frame of NM_016006.6 with the patient mutation p.H82R; Disease-associated (ABHD5-sEDD) missense variant made by site-directed mutagenesis; source: HEK293T, transfected (pcDNA4/HisMaxC), in lysate
# B3: Xpress-tagged human ABHD5 p.S115G (natural protein, UniProt Q8WTS1 1-349, looked up)
# chain: B1 chain with S115G, K260E
# notes: human ABHD5, full-length open reading frame of NM_016006.6 with the patient mutation p.S115G; Disease-associated (ABHD5-sEDD) missense variant made by site-directed mutagenesis; source: HEK293T, transfected (pcDNA4/HisMaxC), in lysate
# B4: Xpress-tagged human ABHD5 p.Q130P (natural protein, UniProt Q8WTS1 1-349, looked up)
# chain: B1 chain with Q130P, K260E
# notes: human ABHD5, full-length open reading frame of NM_016006.6 with the patient mutation p.Q130P; Disease-associated (ABHD5-sEDD) missense variant made by site-directed mutagenesis; source: HEK293T, transfected (pcDNA4/HisMaxC), in lysate
# B5: Xpress-tagged human ABHD5 p.R297N (natural protein, UniProt Q8WTS1 1-349, looked up)
# chain: B1 chain with K260E, R297N
# notes: human ABHD5, full-length open reading frame of NM_016006.6 with the patient mutation p.R297N; Disease-associated (ABHD5-sEDD) missense variant made by site-directed mutagenesis; source: HEK293T, transfected (pcDNA4/HisMaxC), in lysate
# B6: Xpress-tagged human ABHD5 p.G271R (natural protein, UniProt Q8WTS1 1-349, looked up)
# chain: B1 chain with K260E, G271R
# notes: human ABHD5, full-length open reading frame of NM_016006.6 with the patient mutation p.G271R; Disease-associated (ABHD5-sEDD) missense variant made by site-directed mutagenesis; source: HEK293T, transfected (pcDNA4/HisMaxC), in lysate
# Biological target: T1, 3xFLAG-tagged full-length human PNPLA1, …
# Experiment: ELISA; solid-phase interaction assay: 1.8 μg/well of purified 3xFLAG-PNPLA1, PLIN2 or PLIN3 coated on MaxiSorp plates (50 mM Tris-HCl pH 8.0, 200 mM NaCl); 40 μg HEK293T lysate with Xpress-tagged ABHD5 variants in TBS with 2% BSA and 0.05% Tween 20, overnight at 4°C; anti-Xpress and HRP secondary antibody, TMB, absorbance at 620 nm, background subtracted and normalised to expression
# Details: one partner purified
row,Binder,change of PNPLA1 binding (normalised absorbance) against wild-type ABHD5 [%]
1,B1,25
2,B2,44
3,B3,-17
4,B4,16
5,B5,-87
6,B6,-59
